B1: bispecific TCE 69A02 in Format 1B (bispecific antibody)
heavy 1: ETTLTQSPATLSVSPGETATLSCRASQSVSSNLAWYQQKPGQAPRLLIYGASTRATGIPATFSGSGSGTEFTLTISSLQSEDFAIYYCQQYKNWPPAFGGGTELEIKGGGGSGGGGSGGGGSGGGGSQVTLKESGPTLVKPTQTLTLTCSFSGFSITTSGVSVGWIRQPPGKALEWLALIYWDDDKRYSPSLKSRLTITRDTSKNQVVLTMTNMDPVDTATYYCAHAPRYTPGGYFDYWGQGTLVTVSSEPKSSDKTHTCPPCPAPPVAGPSVFLFPPKPKDTLMISRTPEVTCVVVDVSHEDPEVKFNWYVDGVEVHNAKTKPREEQYNSTYRVVSVLTVLHQDWLNGKEYKCAVSNKALAAPIEKTISKAKGQPFRPEVHLLPPSREEMTKNQVSLTCLARGFYPKDIAVEWESNGQPENNYKTTPSRQEPSQGTTTFAVTSKLTVDKSRWQQGNVFSCSVMHEALHNHYTQKTISLSPGKGGGGSGGGGSGGGGSGGGGSEVQLVESGGGLVQPGGSLRLSCAASGFTFNTYAMNWVRQAPGKGLEWVARIRSKYNNYATYYADSVKDRFTISRDDSKNTLYLQMNSLRAEDTAVYYCVRHGNFGNSYVSWFAYWGQGTMVTVSSASTKGPSVFPLAPSSKSTSGGTAALGCLVKDYFPEPVTVSWNSGALTSGVHTFPAVLQSSGLYSLSSVVTVPSSSLGTQTYICNVNHKPSNTKVDKKVEPKSS
heavy 2: ETTLTQSPATLSVSPGETATLSCRASQSVSSNLAWYQQKPGQAPRLLIYGASTRATGIPATFSGSGSGTEFTLTISSLQSEDFAIYYCQQYKNWPPAFGGGTELEIKGGGGSGGGGSGGGGSGGGGSQVTLKESGPTLVKPTQTLTLTCSFSGFSITTSGVSVGWIRQPPGKALEWLALIYWDDDKRYSPSLKSRLTITRDTSKNQVVLTMTNMDPVDTATYYCAHAPRYTPGGYFDYWGQGTLVTVSSEPKSSDKTHTCPPCPAPPVAGPSVFLFPPKPKDTLMISRTPEVTCVVVDVSHEDPEVKFNWYVDGVEVHNAKTKPREEQYNSTYRVVSVLTVLHQDWLNGKEYKCAVSNKALAAPIEKTISKAKGQPREPQVYTLPPPSEELALNELVTLTCLVKGFYPSDIAVEWLQGSQELPREKYLTWAPVLDSDGSFFLYSILRVAAEDWKKGDTFSCSVMHEALHNRFTQKSLDRSPGK
light: QAVVTQEPSLTVSPGGTVTLTCRSSTGAVTTSNYANWVQQKPGQAPRGLIGGTNKRAPGTPARFSGSLLGGKAALTLSGVQPEDEAEYYCALWYSNLWVFGGGTKLTVLGQPKAAPSVTLFPPSSEELQANKATLVCLISDFYPGAVTVAWKADSSPVKAGVETTTPSKQSNNKYAASSYLSLTPEQWKSHRSYSCQVTHEGSTVEKTVAPTECS
notes: also called 69A02 TCE 1B; 1B_69A02x1F3.5 (1B)
B2: bispecific TCE 82H02 in Format 1B (bispecific antibody)
chain 1: EIVLTQSPATLSLSPGERATLSCRASQSVSSYLAWYQQKPGQAPRLLIYDASNRATGIPARFSGSGSGTDFTLTISSLEPEDFAVYYCQQRSNWPPCTFGQGTRLEIKGGGGSGGGGSGGGGSGGGGSEVQLLESGGGLVQPGGSLRLSCAASGFTFTSYAMSWVRQAPGKGLEWVSTISGSGGGTYYTDSVKGRFTISRDNSKNTLYLQMNSLRAEDTAVYYCAQGSSIFDYWGQGTLVTVSSEPKSSDKTHTCPPCPAPEAAGGPSVFLFPPKPKDTLMISRTPEVTCVVVDVSHEDPEVKFNWYVDGVEVHNAKTKPREEQYNSTYRVVSVLTVLHQDWLNGKEYKCKVSNKALGAPIEKTISKAKGQPFRPEVHLLPPSREEMTKNQVSLTCLARGFYPKDIAVEWESNGQPENNYKTTPSRQEPSQGTTTFAVTSKLTVDKSRWQQGNVFSCSVMHEALHNHYTQKTISLSPGKGGGGSGGGGSGGGGSGGGGSEVQLVESGGGLVQPGGSLRLSCAASGFTFNTYAMNWVRQAPGKGLEWVARIRSKYNNYATYYADSVKDRFTISRDDSKNTLYLQMNSLRAEDTAVYYCVRHGNFGNSYVSWFAYWGQGTMVTVSSASTKGPSVFPLAPSSKSTSGGTAALGCLVKDYFPEPVTVSWNSGALTSGVHTFPAVLQSSGLYSLSSVVTVPSSSLGTQTYICNVNHKPSNTKVDKKVEPKSC
chain 2: EIVLTQSPATLSLSPGERATLSCRASQSVSSYLAWYQQKPGQAPRLLIYDASNRATGIPARFSGSGSGTDFTLTISSLEPEDFAVYYCQQRSNWPPCTFGQGTRLEIKGGGGSGGGGSGGGGSGGGGSEVQLLESGGGLVQPGGSLRLSCAASGFTFTSYAMSWVRQAPGKGLEWVSTISGSGGGTYYTDSVKGRFTISRDNSKNTLYLQMNSLRAEDTAVYYCAQGSSIFDYWGQGTLVTVSSEPKSSDKTHTCPPCPAPEAAGGPSVFLFPPKPKDTLMISRTPEVTCVVVDVSHEDPEVKFNWYVDGVEVHNAKTKPREEQYNSTYRVVSVLTVLHQDWLNGKEYKCKVSNKALGAPIEKTISKAKGQPREPQVYTLPPPSEELALNELVTLTCLVKGFYPSDIAVEWLQGSQELPREKYLTWAPVLDSDGSFFLYSILRVAAEDWKKGDTFSCSVMHEALHNHYTQKSLDRSPGK
chain 3: B1 light

What was measured:
human ROR1 (on cells) [1] = target: T1, human ROR1 (on cells) (human, UniProt Q01973 30-937); experiment: cell-based or functional assay
[2] = target: T2, human CD3 (on Jurkat T cells or human CD8+ T cells) (human, UniProt P07766 23-207; P09693 23-182; P04234 22-171; P20963 22-164); experiment: flow cytometry, Jurkat T cells
T2 construct: Entries are printed with signal peptides; also called huCD3; CD3ε
T2 sequence (P07766 23-207 limits assumed, chain 1 of 4): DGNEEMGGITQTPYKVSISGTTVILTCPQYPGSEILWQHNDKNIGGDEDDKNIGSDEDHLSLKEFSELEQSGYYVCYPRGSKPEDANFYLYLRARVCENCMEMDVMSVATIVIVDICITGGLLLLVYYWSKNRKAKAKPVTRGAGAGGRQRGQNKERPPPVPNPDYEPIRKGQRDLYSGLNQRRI
T2 sequence (P09693 23-182 limits assumed, chain 2 of 4): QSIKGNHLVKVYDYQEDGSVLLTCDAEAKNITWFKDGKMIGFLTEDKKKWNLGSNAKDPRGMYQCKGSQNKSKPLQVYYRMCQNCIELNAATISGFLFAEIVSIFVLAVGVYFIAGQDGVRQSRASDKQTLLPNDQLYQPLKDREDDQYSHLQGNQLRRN
T2 sequence (P04234 22-171 limits assumed, chain 3 of 4): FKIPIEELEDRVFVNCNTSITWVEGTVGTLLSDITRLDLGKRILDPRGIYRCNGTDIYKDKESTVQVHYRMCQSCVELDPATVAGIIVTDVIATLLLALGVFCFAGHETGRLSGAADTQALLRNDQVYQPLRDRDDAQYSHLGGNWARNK
T2 sequence (P20963 22-164 limits assumed, chain 4 of 4): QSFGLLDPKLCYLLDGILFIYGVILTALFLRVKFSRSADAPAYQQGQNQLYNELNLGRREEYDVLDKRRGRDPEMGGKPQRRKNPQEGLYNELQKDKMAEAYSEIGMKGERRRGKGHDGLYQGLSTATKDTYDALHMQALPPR
Experimental: (§1) After washing twice with 200 μL of phosphate buffered saline (PBS) by centrifugation at 500×g for 5 minutes at room temperature, the cells were resuspended in 100 μL of Live/Dead fixable green working buffer (ThermoFisher Scientific, Cat No: L23101; one vial of Live/Dead fixable green powder was dissolved into 50 μL of DMSO and 1 μL of dissolved Live/Dead fixable green was added to 1 mL of PBS to prepare the working buffer). After 15-minutes of incubation at room temperature, the cells were washed twice with 200 μL of PBS by centrifugation at 500×g for 5 minutes at room temperature and resuspended in […] of 10% goat serum in BD staining buffer (BD Biosciences, Cat No: 554657). […] The plates were then covered with foil to avoid direct light and incubated for 60 minutes at 4° C. […] After incubating for 30 minutes at 4° C., the cells were washed twice with 200 μL of PBS by centrifugation at 500×g for 5 minutes at room temperature and resuspended into 100 μL of fixation buffer (BioLegend, Cat No: 420801). The samples were then analyzed on a flow cytometer for binding signal using FlowJo software. ROR and CD3 binding EC₅₀s (concentration vs mean fluorescence intensity (MFI)) for reference molecules and test bispecific TCEs were obtained using 4-parameter non-linear regression curve fitting in GraphPad Prism.

human ROR1 (on cells) [3] = target: T1, human ROR1 (on cells); experiment: cell-based or functional assay; remark: listed apart in the source
[4] = target: T2, human CD3 (on Jurkat T cells or human …); experiment: flow cytometry; reference: 69A02 TCE in Format 1A
Experimental: The plates were then covered with foil to avoid direct light and incubated for 60 minutes at 4° C. […] After incubating for 30 minutes at 4° C., the cells were washed twice with 200 μL of PBS by centrifugation at 500×g for 5 minutes at room temperature and resuspended into 100 μL of fixation buffer (BioLegend, Cat No: 420801). The samples were then analyzed on a flow cytometer for binding signal using FlowJo software. ROR and CD3 binding EC₅₀s (concentration vs mean fluorescence intensity (MFI)) for reference molecules and test bispecific TCEs were obtained using 4-parameter non-linear regression curve fitting in GraphPad Prism.

[5] = target: T3, cynomolgus CD3 (on cynomolgus pan-T cells) (cynomolgus, UniProt Q95LI5 22-198); experiment: flow cytometry, cynomolgus pan-T cells
T3 construct: whole, on cells
T3 sequence (Q95LI5 22-198): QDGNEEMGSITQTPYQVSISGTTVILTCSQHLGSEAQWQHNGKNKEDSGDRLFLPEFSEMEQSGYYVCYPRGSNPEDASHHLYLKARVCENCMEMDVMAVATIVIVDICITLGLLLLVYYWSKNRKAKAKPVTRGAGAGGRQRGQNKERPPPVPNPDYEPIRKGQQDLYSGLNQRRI
Experimental: as §1

human ROR1 (on cells) [6] = target: T1, human ROR1 (on cells); experiment: cell-based or functional assay; remark: listed apart in the source
human ROR1 (on cells) [7] = target: T1, human ROR1 (on cells); experiment: flow cytometry, MDA-MB-231 cells
Experimental: as §1

human ROR1 (on cells) [8] = target: T1, human ROR1 (on cells); experiment: flow cytometry, MDA-MB-231 cells; reference: Ref. Frz-binding TCE
Experimental: as §1

human ROR1 (on cells) [9] = target: T1, human ROR1 (on cells); experiment: cell-based or functional assay; remark: listed apart in the source
[10] = target: T4, mouse ROR1 (on 4T1 cells engineered to overexpress it) (mouse, UniProt Q9Z139 30-937); experiment: flow cytometry, 4T1 cells overexpressing mouse ROR1
T4 construct: whole, on cells; also called muROR1; mROR1

human ROR1 (on cells) [11] = target: T1, human ROR1 (on cells); experiment: cell-based or functional assay; remark: listed apart in the source
human ROR1 (on cells) [12] = target: T1, human ROR1 (on cells); experiment: flow cytometry, 4T1 cells overexpressing human ROR1
[13] = target: T4, mouse ROR1 (on 4T1 cells engineered to …); experiment: cell-based or functional assay
human ROR1 (on cells) [14] = target: T1, human ROR1 (on cells); experiment: cell-based or functional assay; remark: listed apart in the source
[15] = target: T4, mouse ROR1 (on 4T1 cells engineered to …); experiment: cell-based or functional assay; remark: listed apart in the source
human ROR1 (on cells) [16] = target: T1, human ROR1 (on cells); experiment: cell-based or functional assay; remark: listed apart in the source
human ROR1 (on cells) [17] = target: T1, human ROR1 (on cells); experiment: cell-based or functional assay; remark: listed apart in the source

Binder | EC50 of target cell killing (TDCC), human CD8+ T cells + ROR1+ MDA-MB-231 (human ROR1 (on cells) [1]) [nM] | EC50 [2] [nM] | EC50 of IFNγ release, human CD8+ T cells + ROR1+ MDA-MB-231 (human ROR1 (on cells) [3]) [nM] | fold lower apparent binding affinity [4] [fold] | EC50 [5] [nM] | IFNγ release EC50, PBMCs + ROR1+ MDA-MB-231 cells (human ROR1 (on cells) [6]) [nM] | EC50 (human ROR1 (on cells) [7]) [nM] | fold higher apparent binding affinity (human ROR1 (on cells) [8]) [fold] | TDCC EC50, PBMCs + ROR1+ MDA-MB-231 cells (human ROR1 (on cells) [9]) [nM] | EC50 [10] [nM] | IFNγ release EC50, cynomolgus CD8+ T cells + ROR1+ MDA-MB-231 (human ROR1 (on cells) [11]) [nM] | IFNγ release EC50, human CD8+ T cells + ROR1+ MDA-MB-231 (human ROR1 (on cells) [11]) [nM] | EC50 (human ROR1 (on cells) [12]) [nM] | IFNγ release EC50, hCD3 KI splenocytes: mROR1+ 4T1 cells [13] [nM] | IFNγ release EC50, hCD3 KI splenocytes: hROR1+ 4T1 cells (human ROR1 (on cells) [14]) [nM] | TDCC EC50, hCD3 KI splenocytes: mROR1+ 4T1 cells [15] [nM] | TDCC EC50, hCD3 KI splenocytes: hROR1+ 4T1 cells (human ROR1 (on cells) [16]) [nM] | TDCC EC50, cynomolgus CD8+ T cells + ROR1+ MDA-MB-231 (human ROR1 (on cells) [17]) [nM] | TDCC EC50, human CD8+ T cells + ROR1+ MDA-MB-231 (human ROR1 (on cells) [17]) [nM]
B1 | 0.0356 | 35.9 | 0.0289 | ~4 | 17.6 | 2.09 | 0.43 | > 30 | 0.048 |  |  |  |  |  |  |  |  |  | 
B2 | 0.0581 | 67.3 | 0.0889 |  | 34.9 | 7.12 | 2.23 |  | 0.0766 | 2.01 | 0.191 | 0.104 | 0.7 | 0.14 | > 0.3 | 0.0215 | 0.185 | 0.0548 | 0.0237
